The source of these data is publication PMC4376459, “CXCR3 antagonist VUF10085 binds to an intrahelical site distinct from that of the broad spectrum antagonist TAK-779” (British Journal of Pharmacology, 2015).

Numbering of substitutions follows the chain as printed.

For one experiment, the target named is T1, CXCR3 (Homo sapiens, UniProt P49682).
T1 sequence (P49682 1-368): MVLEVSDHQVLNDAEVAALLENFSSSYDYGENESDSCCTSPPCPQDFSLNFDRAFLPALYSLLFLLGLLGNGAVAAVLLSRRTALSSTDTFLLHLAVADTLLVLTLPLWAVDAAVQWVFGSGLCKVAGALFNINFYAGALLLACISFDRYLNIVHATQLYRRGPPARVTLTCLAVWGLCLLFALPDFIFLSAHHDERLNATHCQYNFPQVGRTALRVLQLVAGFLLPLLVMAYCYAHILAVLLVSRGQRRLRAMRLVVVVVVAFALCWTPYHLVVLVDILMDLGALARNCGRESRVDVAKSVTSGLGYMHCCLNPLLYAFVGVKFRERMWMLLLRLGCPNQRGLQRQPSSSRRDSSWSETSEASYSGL
The experiment is described as follows: Activity at CXCR3 (data not shown).

A further experiment addresses T2, CXCR3 I279A (Homo sapiens, UniProt P49682, I279A).
T2 construct: expressed in transfected cells; host or cells: murine pre-B cell line L1.2, transient transfection
T2 sequence (P49682 1-368 I279A): T1 sequence (P49682 1-368) with I279A
The experiment is described as follows: Whole-cell 125I-CXCL11 binding assay, L1.2 transfectants. The conditions noted are these: I279A versus WT.

Another experiment addresses T3, CXCL11 (Homo sapiens, UniProt O14625).
T3 chain: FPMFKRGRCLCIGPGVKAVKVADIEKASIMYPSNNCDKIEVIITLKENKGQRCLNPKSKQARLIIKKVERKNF
As to the kind of experiment: homologous competition binding with 125I-CXCL11 on L1.2 transfectants.

For `CCCCOCCOc1ccc(-c2ccc3c(c2)/C=C(/C(=O)Nc2ccc([S@@+]([O-])Cc4cncn4CCC)cc2)CCCN3CC(C)C)cc1` [TAK-652], at CXCR3, the “activity at CXCR3” value is recorded as “devoid of activity”.

With `CCOc1ccc(-n2c(C(C)N(Cc3cccnc3)C(=O)Cc3ccc(OC(F)(F)F)cc3)nc3ncccc3c2=O)cc1` (stereo not drawn) [VUF 10085, N-1R-[3-(4-ethoxy-phenyl)-4-oxo-3,4-dihydro-pyrido[2,3-d]pyrimidin-2-yl]-ethyl-N-pyridin-3-ylmethyl-2-(4-trifluoromethoxy-phenyl)-acetamide], the “decrease in potency, ligand binding” value at CXCR3 I279A is recorded as “twofold”.

B1: CXCR3 (protein)
chain: T1 sequence (P49682 1-368) with Y205A
As to B1, in the experiment with CXCL11, the Kd stood at 10.4 nM.

B2: CXCR3 (protein)
chain: T1 sequence (P49682 1-368) with F131A
As for B2, the Kd with CXCL11 stood at 1.1 nM.

B3: CXCR3 (protein)
chain: T1 sequence (P49682 1-368) with Y60A
B3 gave a Kd in the experiment with CXCL11 of 1.8 nM.

B4: CXCR3 (protein)
chain: T1 sequence (P49682 1-368)
For B4, the dissociation constant (Kd) with CXCL11 was determined as 7.7 nM.

B5: CXCR3 (protein)
chain: T1 sequence (P49682 1-368) with V275A
Regarding B5, binding with CXCL11 was characterised by a dissociation constant (Kd) of 7.4 nM.

B6: CXCR3 (protein)
chain: T1 sequence (P49682 1-368) with H202A
Take B6: in the experiment with CXCL11, the Kd was determined as 2.9 nM.
